Measurements from US20260055207A1 (NATIONAL UNIVERSITY CORPORATION YAMAGATA UNIVERSITY, published 2026).

Target: T1, HER2-hFc (UniProt P04626 23-652)
T1 construct: Immobilized on a CM5 sensor chip; also called HER2 immobilized on a sensor chip; not shown: hFc part
Assay: SPR (Biacore T200), HER2-hFc immobilized on CM5 chip, antibody flowed at 1-16 nmol/l
Experimental: It was examined using a surface plasmon resonance method whether the Herceptin-Okt3 bispecific antibody obtained in Example 1(6) above could maintain a binding to Her2. Specifically: the Herceptin-Okt3 bispecific antibody was allowed to flow over HER2 immobilized on a sensor chip at a predetermined flow rate, and measurement was conducted using an intermolecular interaction analyzer. The Herceptin-Okt3 bispecific antibody purified in Example 1(6) above was diluted with 1×PBS-Tween20 to 1 nmol/l. 2 nmol/l. 4 nmol/l. 8 nmol/l, and 16 nmol/l. After the dilution, a surface plasmon resonance measuring apparatus (Biacore T200, manufactured by Cytiva) was used to measure the binding strength by allowing the diluted solution containing the Herceptin-Okt3 bispecific antibody to flow over HER2-hFc immobilized on a CM5 sensor chip (manufactured by GE Healthcare).
In FIG. 7, the horizontal axis indicates the time (minute), and the vertical axis indicates the response unit (RU).

B1: Herceptin-OKT3 bispecific antibody (bispecific antibody)
heavy 1: not shown
light 1: DIQMTQSPSSLSASVGDRVTITCSASSSVSYMNWYQQTPGKAPKRWIYDTSKLASGVPSRFSGSGSGTDYTFTISSLQPEDIATYYCQQWSSNPFTFGQGTKLQITRTVA
heavy 2: not shown
light 2: not shown
Kd: 2.25 nM
